Source: publication PMC7749166 (Communications Biology, 2020)
Substitutions are numbered along the chain they refer to. Where two headings read alike, the source gives them in different places. Bridge positions count the residues as written; N and C are the ends. Square brackets hold non-standard residues; d marks the D form. Ends that are not written are not given here. dCha = N[C@H](CC1CCCCC1)C(=O)O; Orn = NCCC[C@H](N)C(=O)O

Columns and labels:
[1] = tested on: C5aR; details: cited from earlier work
Text: GPCRs represent the largest human membrane protein family, having overall more than 800 members, and constitute a “control panel” of the cell[27]. […] However, the peptidic nat ...

[2] = tested on: C5aR; details: cited from earlier work; remark: listed apart in the source
Text: G-protein-coupled receptors (GPCRs) are a large family of versatile and dynamic cell surface receptors expressed in almost all tissue types. Upon ligand binding to highly conserved orthosteric binding sites, GPCR pass from a quiescent to an active state, initiating signal transduction. The conservation of orthosteric binding sites throughout the GPCR superfamily and a poor understanding of the mechanism underneath their activation cycle are two key factors currently hampering the development of specific drugs towards a specific sub-type in a GPCR family. […] We simultaneously recorded FD-based AFM height images and adhesion maps (Fig. 3b, c) and extracted FD curves located on C5aR having their native orientation (based on our height criterion) (Fig. 3d). Generally, force-probing methods such as FD-based AFM measure the strength of single bonds under an externally applied force. Described first by the Bell-Evans model, an external force stressing a bond reduces the activation-energy barri ...

[3] = target: C5aR^WT incubated with PMX53 (effector site blocked) (human) (UniProt P21730); assay: AFM dynamic force spectroscopy (FV- and FD-based AFM, Friddle-Noy-de Yoreo fit); C5a tethered by its N-terminal His6-tag to a tris-NTA-Ni2+ PEG27 tip; C5aR (wild type, mutant, or wild type incubated with PMX53) in DOPC/CHS liposomes adsorbed on mica; imaging buffer 20 mM HEPES, 300 mM NaCl; ≈24 °C; Kd calculated from ΔGbu = kbT × ln(0.018 Kd)
[4] = target: T1, C5aRΔTyr mutant (Y11F and Y14F), reconstituted in DOPC/CHS liposomes (human, UniProt P21730 1-350, Y11F | Y14F); assay: as above; details: both partners purified
T1 construct: C5a anaphylatoxin chemotactic receptor 1 (C5aR), human; lack of tyrosine sulfonation validated by western blot; The methods print the mutations as 'Y11F and F14F'; the results print Y11F and Y14F; also called C5aR∆Tyr; source: HEK-293S GnTI- cells (BacMam), purified, reconstituted in DOPC/CHS liposomes
T1 sequence (looked up): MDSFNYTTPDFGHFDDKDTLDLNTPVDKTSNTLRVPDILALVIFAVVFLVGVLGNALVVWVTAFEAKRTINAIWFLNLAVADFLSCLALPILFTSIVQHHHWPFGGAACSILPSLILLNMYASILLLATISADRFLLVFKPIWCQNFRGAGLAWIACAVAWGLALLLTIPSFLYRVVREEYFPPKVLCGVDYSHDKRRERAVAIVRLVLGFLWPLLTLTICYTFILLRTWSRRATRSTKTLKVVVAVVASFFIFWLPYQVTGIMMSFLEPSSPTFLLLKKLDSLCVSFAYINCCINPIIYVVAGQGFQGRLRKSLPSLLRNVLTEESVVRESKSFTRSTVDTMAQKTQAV

[5] = target: T2, wild type C5a anaphylatoxin chemotactic receptor 1 (C5aR), reconstituted in DOPC/CHS liposomes (human, UniProt P21730 1-350, sulfonated tyrosine residues (Y11 and Y14)); assay: as above; details: both partners purified
T2 construct: C5a anaphylatoxin chemotactic receptor 1 (C5aR), human; wild type; Receptors lie in both orientations in the bilayer; also called C5aR^WT; wtC5aR; source: HEK-293S GnTI- cells (BacMam), purified (Ni-NTA, anti-Flag M1 resin, SEC), reconstituted in DOPC/CHS liposomes; not shown: His8, C-terminal, kept
T2 sequence (looked up): T1 sequence (looked up) with F11Y, F14Y

[6] = target: T2, wild type C5a anaphylatoxin chemotactic …; assay: AFM dynamic force spectroscopy (FV- and FD-based AFM, Friddle-Noy-de Yoreo fit); PMX53-Gly3-Cys coupled by its Cys to a PEG27-maleimide tip; C5aR (wild type or mutant) in DOPC/CHS liposomes adsorbed on mica; imaging buffer 20 mM HEPES, 300 mM NaCl; ≈24 °C; Kd calculated from ΔGbu = kbT × ln(0.018 Kd); details: both partners purified

C5aR^WT incubated with PMX53 (effector site blocked) (human), sequence (P21730 whole entry): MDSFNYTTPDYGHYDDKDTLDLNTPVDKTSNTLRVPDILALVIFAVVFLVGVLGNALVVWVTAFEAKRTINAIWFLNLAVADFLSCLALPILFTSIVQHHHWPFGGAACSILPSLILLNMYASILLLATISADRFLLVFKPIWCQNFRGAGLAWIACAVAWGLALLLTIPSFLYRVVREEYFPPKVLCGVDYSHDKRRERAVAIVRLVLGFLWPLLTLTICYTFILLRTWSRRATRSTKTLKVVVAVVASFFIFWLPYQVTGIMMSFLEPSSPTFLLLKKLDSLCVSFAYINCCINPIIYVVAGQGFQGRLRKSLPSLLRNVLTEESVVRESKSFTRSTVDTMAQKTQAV

Molecule: CCCCn1c(-c2ccccc2)nc(-c2ccccc2)c1CN(Cc1ccc2c(c1)OCO2)Cc1ccc2c(c1)OCO2 [NDT9513727]
- antagonist action ([1]; recent structural studies): allosteric modulators with highly reversible action

Molecule: Ace-Phe-[{Orn}-Pro-{D-Cha}-Trp-Arg] (sidechain bridge or staple) [PMX53, cyclic antagonist peptide that mimics the C-terminal structure of the endogenous C5a ligand]
- antagonist action [1]: potent orthosteric antagonist with insurmountable action
- affinity towards the effector site [2]: nanomolar affinity

Molecule: Cc1ccc(NC(=O)[C@H]2CCCN(C(=O)c3c(C)cccc3F)[C@H]2c2ccc(NC3CCCC3)cc2)cc1C(F)(F)F [avacopan]
- antagonist action ([1]; recent structural studies): allosteric modulators with highly reversible action
- therapeutic efficacy ([1]; to advance into late-stage clinical trials): sufficient therapeutic efficacy

B1: complement C5a anaphylatoxin with N-terminal His6-tag (ligand, human, UniProt P01031 678-751, looked up)
chain: TLQKKIEEIAAKYKHSVVKKCCYDGACVNNDETCEQRAARISLGPRCIKAFTECCVVASQLRANISHKDMQLGR
notes: C5a anaphylatoxin, the 74-amino acid cut product of complement C5; numbers count on: C5a itself (R74 is its C-terminal residue); Tethered by its His6-tag to a tris-NTA-Ni2+ PEG27 AFM tip; C5a from R&D Systems is named only for the GTPgammaS assay; also called C5a ligand; endogenous C5a ligand; not shown: His6, N-terminal, kept
- Kd [3]: 800 mM
- equilibrium force Feq [3]: 29 pN
- residence time τ0.5 [3]: 0.2 ms
- Kd [4]: ~20 mM
- Kd [5]: ~4.5 nM

B2: PMX53-Gly3-Cys (Cys-Gly3-Phe-[{Orn}Pro-{D-Cha}-Trp-Arg]) (peptide)
chain: CGGGF[Orn]P[dCha]WR
modifications: lactam 6-C; not fully specified; printed as Cys-Gly3-Phe-[{Orn}Pro-{D-Cha}-Trp-Arg]
- Kd [6]: 4.7 nM
